This is an account of results in patent publication US20230034768A1 (BIOSION, published 2023).

Experiment [1] deals with T1, Recombinant human RANKL-his protein (R&D, Cat #6449-TEC-010) (human, UniProt O14788 140-317, limits assumed).
T1 sequence (looked up): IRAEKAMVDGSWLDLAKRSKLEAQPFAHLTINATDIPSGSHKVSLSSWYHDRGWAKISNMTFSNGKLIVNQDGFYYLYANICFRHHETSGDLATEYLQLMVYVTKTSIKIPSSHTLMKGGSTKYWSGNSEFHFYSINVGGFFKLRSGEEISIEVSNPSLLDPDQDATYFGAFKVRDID
Nature of the experiment: cell-based or functional assay.

In experiment [2] the target is T2, biotin-labeled human RANKL-Fc protein (prepared in house, SEQ ID NO.: 40) (human, biotin-labeled (sites not given)).
T2 construct: also called RANKL-Fc-biotin
Nature of the experiment: capture ELISA: captured antibody, biotin-labeled human RANKL-Fc, OD(450-630). On the procedure: (§1) Plates were washed once with wash buffer (PBS+0.05% v/v Tween-20, PBST) and then blocked with 200 μl/well blocking buffer (5% w/v non-fatty milk in PBST) for 2 hours at 37° C. […] After a final wash, plates were incubated with 100 μl/well ELISA substrate TMB (Innoreagents, Cat #TMB-S-002) at room temperature. The reaction was stopped in 3-10 minutes with 50 μl/well 1M H₂SO₄, and the absorbance of each well was read on a microplate reader using dual wavelengths mode with 450 nm for TMB and 630 nm as the reference wavelength. The OD (450-630) values were plotted against antibody concentration. Data were analyzed using Graphpad Prism software and EC₅₀ values were reported.
(In general: In an ELISA, binding on a coated surface is turned into a signal by an enzyme label.)

For experiment [3], the target named is T2, biotin-labeled human RANKL-Fc protein …. Nature of the experiment: competitive ELISA: antibody blocks biotin-labeled human RANKL-Fc binding to coated human RANK-Fc. On the procedure:
(§2) Briefly, human RANK-Fc proteins (prepared in house, SEQ ID NO.: 41) were coated on 96-well micro plates at 2.0 μg/mL in PBS, 100 μl/well, and incubated overnight at 4° C. The next day, plates were washed with wash buffer (PBS+0.05% w/v Tween-20, PBST), and blocked with 5% w/v non-fatty milk in PBST, 200 μl/well, for 2 hours at 37° C.
(§3) Plates were washed 4 times using wash buffer, and added and incubated with 100 μl/well of streptavidin conjugated HRP (1:10000 dilution in PBST buffer, Jackson ImmunoResearch Laboratories, Inc., Cat #016-030-084) for 40 minutes at 37° C. Plates were washed again using wash buffer. Finally, TMB was added and the reaction was stopped using 1M H₂SO₄, and the absorbance of each well was read on a microplate reader using dual wavelengths mode with 450 nm for TMB and 630 nm as the reference wavelength. The OD (450-630) values were plotted against antibody concentration. Data were analyzed using Graphpad Prism software and IC₅₀ values were reported.

Experiment [4] concerns the target T1, Recombinant human RANKL-his protein …. Nature of the experiment: cell-based or functional assay. The source holds these as a separate data set.
Experiment [5] has the same target. The experiment is described as follows: cell-based or functional assay. The source holds these as a separate data set.
In experiment [6] the target is T3, human RANKL-his protein (prepared in-house with SEQ ID NO: 43) (human, UniProt O14788 136-317).
T3 construct: also called recombinant human RANKL-his
T3 chain: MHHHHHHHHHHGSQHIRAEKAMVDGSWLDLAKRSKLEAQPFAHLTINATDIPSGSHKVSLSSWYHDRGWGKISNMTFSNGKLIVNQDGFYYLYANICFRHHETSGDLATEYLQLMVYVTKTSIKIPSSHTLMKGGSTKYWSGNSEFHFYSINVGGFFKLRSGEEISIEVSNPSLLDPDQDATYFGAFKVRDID
The experiment is described as follows: Octet BLI, antibody captured, human RANKL-his in solution (same value as Table 2). The protocol: (§4) Briefly, AHC/AMC biosensors (anti-human/anti-mouse IgG Fc capture, ForteBio) were presoaked with 10 mM glycine (pH 1.5) for 3 seconds, and then dipped in a well with running buffer (0.5% w/v BSA in PBST) for 3 seconds, the soaking and dipping steps were repeated for three times. […] A new baseline was run for 180 seconds in another well with HBS-EP⁺. […] Finally, sensors were presoaked with 10 mM glycine (pH 1.5) for 3 seconds, and then dipped in a well with running buffer for 3 seconds, the soaking and dipping steps repeated for three times. The association and dissociation curves were fit to a 1:1 Langmuir binding model using Octet evaluation software.
(Biolayer interferometry detects binding as a change in optical thickness at a sensor tip.)

The target of experiment [7] is T2, biotin-labeled human RANKL-Fc protein …. The experiment is described as follows: capture ELISA: captured antibody, biotin-labeled human RANKL-Fc, OD(450-630). The protocol: as §1
For the capture ELISA, 96-well micro plates were coated with 2 μg/ml goat anti-human IgG (AffiniPure Goat Anti-Human IgG, F(ab′)₂ fragment specific, Jackson Immunoresearch, Cat #109-005-097) instead of AffiniPure Goat Anti-Mouse IgG, Fcγ fragment specific, 100 μl/well.
This is another data set of the same source.

Experiment [8] shares this target. The experiment is described as above. On the procedure: as §1
Cell supernatants were harvested after six days in shaking flasks, spun down to pellet cells, and then chimeric antibodies were purified from cell supernatants as described above. The purified antibodies were tested in the capture ELISA, competitive ELISA assay and Octet affinity test following the protocols in the foregoing Examples.
This is another data set of the same source.

Experiment [9] addresses T3, human RANKL-his protein (prepared …). The experiment is described as follows: Octet BLI, antibody captured on AHC/AMC sensor, human RANKL-his in solution, 1:1 fit. On the procedure: as §4
The target in experiment [10] is T2, biotin-labeled human RANKL-Fc protein …. Nature of the experiment: competitive ELISA: antibody blocks biotin-labeled human RANKL-Fc binding to coated human RANK-Fc. On the procedure:
as §2, §3
This is another data set of the same source.

The target is the same in experiment [11]. Nature of the experiment: competitive ELISA: antibody blocks biotin-labeled human RANKL-Fc binding to coated benchmark denosumab. The protocol: The next day, plates were washed with wash buffer, and blocked with 5% w/v non-fatty milk in PBST, 200 μl/well, for 2 hours at 37° C. […] After incubation at 37° C. for 40 minutes, plates were washed 4 times using wash buffer. Then the plates were added and incubated with 100 μl Peroxidase Streptavidin (1:5000 dilution in PBST buffer, Jackson Immunoresearch, Cat #016-030-084) for 40 minutes at 37° C. Plates were washed again using wash buffer. Finally, TMB was added and the reaction was stopped using 1M H₂SO₄. The absorbance of each well was read on a microplate reader using dual wavelengths mode with 450 nm for TMB and 630 nm as the reference wavelength, and the OD (450-630) values were plotted against antibody concentration. Data were analyzed using Graphpad Prism software and IC₅₀ values were reported.

Experiment [12] shares this target. The experiment is described as above. The source holds these as a separate data set.
For experiment [13], the target named is T1, Recombinant human RANKL-his protein …. Nature of the experiment: cell-based or functional assay. The source holds these as a separate data set.
For experiment [14] the target is unchanged. Nature of the experiment: cell-based or functional assay. The source holds these as a separate data set.

Substitutions are numbered along the chain they refer to. Read-outs that look alike come from different tables or passages of the source.

One may read the EC50 as the concentration giving half of the maximal effect. A lower EC50 goes with a more potent agent. One may read the IC50 as the concentration needed to halve the response being measured. A higher IC50 goes with weaker potency. By Kd is commonly meant the free concentration of one partner at which half of the binding sites on the other are occupied at equilibrium, for simple one-to-one binding. The low end stands for tighter binding, the high end for weaker binding. A word on the koff: it is the rate constant with which the complex falls apart. The low end stands for slow dissociation, the high end for fast dissociation. As usually defined, the kon is the rate constant with which the complex forms.

B1: mouse anti-RANKL monoclonal antibody B4H5 (antibody, V domains shown)
VH: DVQLQESGPDLVKPSQSLSLTCTVTGYSISSGYSWHWIRQFPGNKLEWMDYIHFSGSTNYNPSLKSRISITRDTSKNQFFLQFISVTTEDTATYYCARSGPSTYVMDYWGQGTSVTVSS
VL: DIVMTQSHRFMSTSVGDRVSITCKASQDVGAAVGWYQQKPGQSPKLLIYWASIRDTGVPDRFTGSGSGTDFTLTISNVQSEDLADYFCQHYNSYPLTFGGGTKLEIK
notes: Hybridoma-derived mouse IgG
Regarding B1, in experiment [1], the “IC50, RANKL-induced osteoclast differentiation of RAW264.7 cells (pNPP, OD405)” value came out at 1.31 nM. In [2], the midpoint of the response, the EC50, lay at 0.583 nM. Also, the IC50 in experiment [3] turned out to be 2.1 nM.

B2: mouse anti-RANKL monoclonal antibody D1A1 (antibody, V domains shown)
VH: EVQLVESGGGLVKSGGSLKLSCAASGFTFRNYAMSWVRQTPEKRLEWVAGISSGGTYTYYPDTVKGRFTISRDNARNTLFLQMSSLRSEDTAMYYCARRDYGDVYEWYFDVWGTGTTVTVSS
VL: DIVMTQSHKFMSTSVGDRVSITCKASQDVRTSIAWYQQKPGQSPNLLIYSASYRYTGVPDRFTGSGSGTDFTFTISSVQAEDLAVYYCQQHYSSPWTFGGGTKLEIK
notes: Hybridoma-derived mouse IgG purified on Protein A; also called Mouse D1A1
As for B2, the “IC50, RANKL-induced osteoclast differentiation of RAW264.7 cells (pNPP, OD405)” value in experiment [4] worked out at 0.839 nM; in experiment [5], 3.41 nM. Besides, the Kd in experiment [6] and in experiment [9] was 0.0718 nM throughout. Also, the values for the concentration giving a half-maximal response (EC50) in [7], in experiment [2] and in [8] were 0.632 nM, 0.0826 nM and 1.11 nM, respectively. In experiment [9], the koff was 7.9e-05 s⁻¹. This molecule had a kon in experiment [9] of 1.1e+06 M⁻¹ s⁻¹. The half-inhibitory concentration (IC50) in experiment [10] turned out to be 0.414 nM; in experiment [3], 0.0802 nM; in experiment [11], 0.391 nM; in experiment [12], 1.28 nM.

B3: mouse anti-RANKL monoclonal antibody D1E3 (antibody, V domains shown)
VH: B2 VH with S14P, R30S, N31R, N74S, R76K, T78I, F80Y, S84G, T91S, Y95H
VL: B2 VL with T13A, D28G, T31I, S32A, I33V, N45K, Y92H
notes: Hybridoma-derived mouse IgG; also called Mouse D1E3
In the case of B3, the “IC50, RANKL-induced osteoclast differentiation of RAW264.7 cells (pNPP, OD405)” value in experiment [13] was found to be 0.998 nM. In addition, the EC50 in experiment [2] amounted to 0.0464 nM; in experiment [8], 0.246 nM. In addition, the IC50 in experiment [3] was 0.0365 nM; in experiment [11], 0.164 nM.

B4: mouse anti-RANKL monoclonal antibody B1A8 (antibody, V domains shown)
VH: EVQLVESGGDLVKPGGSLKLSCAASGFTFSRYGMSWVRQTPDKRLEWVASISSGGTYTSYPDSVQGRFTITRDSAKNTLYLQMSSLKSEDTAMYYCARRNFITSATDCYFDVWGAGTTVTVSS
VL: DTVLTQSPATLSVTPGASVSLSCRASQSISNNLHWYQQKSHESPRLLIIYASQSISGIPSRFSGSGSGTDFTLSINSVETEDFGVYFCQQSNSWPFTFGGGTKLEIK
notes: Hybridoma-derived mouse IgG; also called Mouse B1A8
As to B4, the “IC50, RANKL-induced osteoclast differentiation of RAW264.7 cells (pNPP, OD405)” value in experiment [14] was found to be 0.967 nM. Further, the Kd in [6] and in experiment [9] was 0.386 nM each time. Further, the EC50 was 0.397 nM in experiment [2] and 0.493 nM in [8]. The same molecule came in with a koff in [9] of 0.000236 s⁻¹. In experiment [9], this molecule returned a kon of 611000 M⁻¹ s⁻¹. Also, the IC50 was 0.26 nM in experiment [3] and 0.498 nM in experiment [11].
